Measured values as given in the supplement of paper PMC9732359.
± gives the uncertainty stated by the source.

Assay: protein stability index of a GFP-peptide fusion (yeast GPS) (PSI 1-4); higher = more stable; sorted into four equal gates, so the index is relative within each strain
Summary of the method: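 Each library plasmid carries Cherry plus GFP with a tiled 17-residue yeast protein peptide fused downstream, and the pooled library was carried in yeast. Mid-log cultures in leucine-free medium were sorted into four equal gates by GFP/Cherry ratio. Reads from Illumina sequencing of PCR-amplified plasmids from each gate were assigned to strains by barcodes. Per peptide, the protein stability index was computed as the summed products of gate read frequency and gate number.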

Sequence | protein stability index (doa10∆) | protein stability index (pdr5∆) | protein stability index (san1∆) | protein stability index (ubr1∆)
TGEWFSSYEEFLERFDF [ITC1] | 2.99 ± 0.098 | 1.99 ± 0.06 | 2.09 ± 0.12 | 2 ± 0.15
PANNHQLGLQTVIRGNS [SMX2] | 3.02 ± 0.077 | 3.19 ± 0.086 | 2.91 ± 0.074 | 2.85 ± 0.053
FVSRIPIMFQDFDDSTA [IRR1] | 2.1 ± 0.04 | 1.96 ± 0.042 | 1.69 ± 0.053 | 2 ± 0.03
MSDVEEVVEVQEETVVE [RPS12] | 3.15 ± 0.1 | 3.36 ± 0.11 | 2.89 ± 0.084 | 3.12 ± 0.12
IQVAAFIYGMSAKDHPK [PRP8] | 3.24 ± 0.091 | 2.98 ± 0.12 | 3.19 ± 0.082 | 3.17 ± 0.12
LELAGMDALYEKIWFAI [SIR3] | 1.41 ± 0.095 | 1.53 ± 0.068 | 1.21 ± 0.11 | 1.15 ± 0.052
ESGEDEAEFSLRELSCC [RRP46] | 3.24 ± 0.05 | 3.12 ± 0.075 | 3.2 ± 0.064 | 3.16 ± 0.066
IIKGTDVYSPEKGSWEQ [BRR2] | 3.1 ± 0.06 | 3.35 ± 0.075 | 3.24 ± 0.11 | 3.25 ± 0.13
DVYASKVRLNASEREEL [PRP8] | 1.93 ± 0.062 | 2.22 ± 0.061 | 2.39 ± 0.072 | 1.78 ± 0.046
ALVAGIERYPSKVTKKH [RPL27B] | 1.86 ± 0.082 | 1.99 ± 0.063 | 1.47 ± 0.12 | 1.96 ± 0.2
PDGLGEVGMKVQSGQIY [RET1] | 3.27 ± 0.14 | 3.15 ± 0.12 | 2.91 ± 0.094 | 3.21 ± 0.25
MAVGKNKRLSKGKKGQK [RPS1A] | 1.5 ± 0.14 | 1.62 ± 0.086 | 1.65 ± 0.15 | 1.45 ± 0.12
QLKWAQNTIDDTEMKMK [YIL149C/MLP2] | 2.15 ± 0.046 | 2.88 ± 0.056 | 2.71 ± 0.059 | 2.74 ± 0.059
DVKVSISHDDLQAVAVA [FAS2] | 2.66 ± 0.076 | 2.6 ± 0.055 | 1.61 ± 0.065 | 2.22 ± 0.049
ITTFVKRSTVPLNDGFV [YML103C/NUP188] | 2.37 ± 0.066 | 2.32 ± 0.093 | 1.91 ± 0.11 | 2.35 ± 0.053
MTLLTDSLRKLYVDSES [MTW1] | 1.45 ± 0.078 | 1.79 ± 0.11 | 1.65 ± 0.11 | 1.59 ± 0.077
EDVLSSFYRVEKIKKIN [SSN2] | 1.7 ± 0.28 | 1.13 ± 0.074 | 1.24 ± 0.28 | 1.16 ± 0.089
QVSNFAPQVYIITKNEN [GAL11] | 2.96 ± 0.16 | 1.98 ± 0.11 | 2.38 ± 0.26 | 1.67 ± 0.084
CQLQNSDNSEEEEVDID [RRP43] | 3.2 ± 0.077 | 3.22 ± 0.065 | 3.02 ± 0.08 | 3.13 ± 0.056
DNEEWMNDVINTEEVNR [LIN1] | 3.2 ± 0.071 | 3.46 ± 0.079 | 3.23 ± 0.044 | 3.39 ± 0.085
ANNQEYDLNFKLRETLV [SMC1] | – | – | 3.63 ± 0.18 | 3.41 ± 0.21
EALNLLKFFLVDENETV [LIN1] | 1.52 ± 0.06 | 1.52 ± 0.043 | 1.4 ± 0.12 | 1.14 ± 0.054
FESSSSLPFLLRHMPLA [SSN2] | 2.17 ± 0.16 | 1.61 ± 0.17 | 2.76 ± 0.18 | 1.48 ± 0.11
EWKSNHKKKRSNAAGAD [SRB8] | 1.33 ± 0.13 | 1.72 ± 0.2 | 1.5 ± 0.17 | 1.83 ± 0.054
QIISNAHNKPSLFSKIK [YAR002W/NUP60] | 2.94 ± 0.088 | 2.98 ± 0.093 | 2.77 ± 0.071 | 2.94 ± 0.058
IKSQYYSRISKLKQLLD [YIL149C/MLP2] | 1.2 ± 0.095 | 1.87 ± 0.11 | 1.64 ± 0.12 | 1.45 ± 0.068
AGIVPVSANTPKSLNSN [SWI1] | 3.07 ± 0.059 | 3.04 ± 0.066 | 3.04 ± 0.048 | 3.22 ± 0.043

Sequence | protein stability index (doa10∆) | protein stability index (pdr5∆) | protein stability index (san1∆) | protein stability index (ubr1∆)
ENDAKKSKGDVDIKGED [NUT1] | 3.18 ± 0.12 | 3.27 ± 0.2 | 2.95 ± 0.16 | 3.2 ± 0.12
HLRSNILKDLIYRGVLN [SMC1] | 1.74 ± 0.059 | 1.78 ± 0.085 | 1.8 ± 0.14 | 1.74 ± 0.056
AGVEDVYTQSNGKTRTL [RPS2] | 2.76 ± 0.11 | 3.21 ± 0.084 | 3.28 ± 0.066 | 3.48 ± 0.057
DNNSKAEASFTFGTKHA [YLR335W/NUP2] | 3.21 ± 0.082 | 3.09 ± 0.076 | 2.93 ± 0.049 | 3.02 ± 0.053
LADWRIRPLSKPMTAYA [RRP6] | 2.82 ± 0.13 | 3.15 ± 0.13 | 2.7 ± 0.19 | 2.98 ± 0.088
KEIYYTPDPSELAAKEE [FAS2] | 2.631 ± 0.023 | 2.748 ± 0.023 | 2.601 ± 0.024 | 2.531 ± 0.017
TTIKAIFDGNYGESDIH [YMR129W/POM152] | 3.23 ± 0.09 | 2.97 ± 0.14 | 3.58 ± 0.2 | 2.89 ± 0.12
NSSEKNNNNNNNNNNNN [MED2] | 3.09 ± 0.058 | 3.03 ± 0.058 | 2.95 ± 0.059 | 3.12 ± 0.053
ESFESYHNLTTHNSYEK [RPN6] | 3.19 ± 0.068 | 3.17 ± 0.065 | 2.84 ± 0.075 | 3.28 ± 0.044
GKGRQSAKAELEKLVDH [PRE10] | 1.82 ± 0.099 | 2.19 ± 0.072 | 1.59 ± 0.28 | 1.14 ± 0.088
LYAVSTFENTNNTEKND [SIR4] | 2.37 ± 0.072 | 2.4 ± 0.075 | 2.5 ± 0.083 | 2.38 ± 0.057
TKLRAFVYNKVNETEAI [YGR119C/NUP57] | 2.3 ± 0.084 | 2.69 ± 0.064 | 2.68 ± 0.061 | 2.59 ± 0.059
RFVMPNQLLAALVAYTP [RRP6] | 1.83 ± 0.041 | 1.84 ± 0.045 | 1.39 ± 0.07 | 1.71 ± 0.032
TETSNEDEDEDDETPSC [SNU114] | 2.68 ± 0.067 | 2.75 ± 0.058 | 3.02 ± 0.055 | 2.74 ± 0.046
MYCRPAPSDFSENQRQI [GRR1] | 3.13 ± 0.085 | 2.62 ± 0.084 | 3.02 ± 0.078 | 2.66 ± 0.082
TKRWYKNAGLGFKTPKT [RPS11A] | 3.32 ± 0.096 | 3.42 ± 0.12 | 3.05 ± 0.11 | 3.5 ± 0.082
AKINEVYNNSKDEYLAQ [NSL1] | 2.83 ± 0.047 | 3.06 ± 0.043 | 2.77 ± 0.048 | 2.75 ± 0.037
QHDSSANEDEEEQLDAL [CSN12] | 3.55 ± 0.25 | 2.75 ± 0.21 | – | 3 ± 0.17
PHTTLVNECIAQSHQRF [CDC53] | 2.79 ± 0.066 | 2.92 ± 0.052 | 2.85 ± 0.055 | 2.98 ± 0.039
LQQQQQVVTTVASQSPH [SNF6] | 1.81 ± 0.08 | 1.92 ± 0.074 | 2.03 ± 0.11 | 2.25 ± 0.049
NLAIVELVRLLIIDEIH [BRR2] | 2.58 ± 0.069 | 2.38 ± 0.08 | 2.85 ± 0.088 | 2.36 ± 0.062
PNVCNMKQYRDFLGVAS [PRP28] | 1.99 ± 0.14 | 2.26 ± 0.091 | 2.37 ± 0.077 | 1.99 ± 0.072
GENVFLKRISDGLSFGK [SIR3] | 3.26 ± 0.18 | 3.39 ± 0.17 | 3.42 ± 0.075 | 3.54 ± 0.09
TLSVSHGINLQNKKNLK [SSN2] | 2.7 ± 0.062 | 2.62 ± 0.054 | 2.65 ± 0.077 | 2.78 ± 0.063
TNTFGSNSAGTSLFGSS [YJL041W/NSP1] | 3.1 ± 0.083 | 2.84 ± 0.09 | 3.16 ± 0.082 | 3.15 ± 0.058
GNDAKPAKVEDVQKSSD [YLR335W/NUP2] | 3.3 ± 0.064 | 3.2 ± 0.058 | 3.17 ± 0.052 | 3.13 ± 0.051
